Several values for one entry are separate records, joined by “and”; a condition that tells them apart may be missing. Equal values may be shown once. Bridges are numbered along the chain shown (N, C = ends). Where no end group is shown, it is not given here. [ ]: non-standard residue; d: D form. R8 = C=CCCCCCC[C@@](C)(N)C(=O)O; S5 = C=CCCC[C@](C)(N)C(=O)O
T1: monomeric N protein NK170AR185A-His (N^mono) (human respiratory syncytial virus (HRSV), UniProt P03418 1-391)
T1 construct: also called NK170AR185A-His protein; recombinant N^mono
T1 sequence: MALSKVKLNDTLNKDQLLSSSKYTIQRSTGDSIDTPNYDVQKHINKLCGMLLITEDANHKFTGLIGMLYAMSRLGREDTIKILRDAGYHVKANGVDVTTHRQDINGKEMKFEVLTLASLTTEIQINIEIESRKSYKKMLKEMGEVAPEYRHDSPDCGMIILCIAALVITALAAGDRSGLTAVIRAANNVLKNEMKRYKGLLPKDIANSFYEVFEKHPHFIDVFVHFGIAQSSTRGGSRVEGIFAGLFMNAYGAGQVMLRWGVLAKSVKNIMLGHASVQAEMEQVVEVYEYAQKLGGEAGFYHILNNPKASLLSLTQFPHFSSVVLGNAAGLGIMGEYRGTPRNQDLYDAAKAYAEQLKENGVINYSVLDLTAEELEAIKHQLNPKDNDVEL


What was measured:
[1] = biological target: monomeric N protein NK170AR185A-His (N^mono) (human respiratory syncytial virus (HRSV)) (UniProt P03418); assay: SPR, GST-P[1-40] mutant captured on anti-GST antibody, N^mono injected
[2] = biological target: monomeric N protein NK170AR185A-His (N^mono) (human respiratory syncytial virus (HRSV)) (UniProt P03418); assay: SPR (Proteon XPR36): GST-P[1-40] mutant captured on anti-GST antibody, N^mono injected, steady-state fit
[3] = biological target: monomeric N protein NK170AR185A-His (N^mono) (human respiratory syncytial virus (HRSV)) (UniProt P03418); assay: SPR (ProteOn XPR36), GST-P[1-40] captured on anti-GST antibody, N^mono injected, steady-state fit; upper end of the range 4-5 µM
[4] = biological target: monomeric N protein NK170AR185A-His (N^mono) (human respiratory syncytial virus (HRSV)) (UniProt P03418); assay: SPR (ProteOn XPR36), GST-P[1-40] captured on anti-GST antibody, N^mono injected, steady-state fit; lower end of the range 4-5 µM
[5] = biological target: RSV nucleoprotein N, wild type (N^0 form in cells) (human respiratory syncytial virus (HRSV)) (UniProt P03418); assay: cell-based or functional assay
[6] = biological target: T1, monomeric N protein NK170AR185A-His …; assay: fluorescence polarization competition: stapled peptide titrated against FAM-P(1-40) on recombinant N^mono

Molecule | Kd [1] | Kd [2] | luciferase activity in the HRSV minigenome replication assay [5] | also measured
GST-P[1-40] E2A (from UniProt P12579 1-40) | 1.9 µM |  |  | fold increase of affinity against wild type GST-P[1-40] [1]: 2 fold
GST-P[1-40] E7A (from UniProt P12579 1-40) | > 10 µM and < 20 µM | 11.1 µM |  | 
GST-P[1-40] E22A (from UniProt P08515 1-218; P12579 1-40) |  | 7.49 µM |  | 
GST-P[1-40] F4A (from UniProt P12579 1-40) | > 10 µM and < 20 µM | 13.8 µM |  | 
GST-P[1-40] F8A (from UniProt P12579 1-40) | 41 µM |  |  | 
GST-P[1-40] G10A (from UniProt P12579 1-40) | > 5 µM and < 10 µM | 5.1 µM |  | 
GST-P[1-40] G26A (from UniProt P12579 1-40) | 2.6 µM |  |  | fold increase of affinity against wild type GST-P[1-40] [1]: 2 fold
GST-P[1-40] H9A (from UniProt P12579 1-40) |  | 4 µM |  | 
GST-P[1-40] I24A (from UniProt P12579 1-40) | > 10 µM and < 20 µM | 16.4 µM |  | 
GST-P[1-40] K3A (from UniProt P12579 1-40) |  | 3.49 µM |  | 
GST-P[1-40] K25A (from UniProt P12579 1-40) | > 5 µM and < 10 µM | 7.77 µM |  | 
GST-P[1-40] L21A (from UniProt P08515 1-218; P12579 1-40) |  | 17.6 µM |  | 
GST-P[1-40] P6A (from UniProt P12579 1-40) |  | 4.89 µM |  | 
GST-P[1-40] S23A (from UniProt P12579 1-40) |  | 4.5 µM |  | 
GST-P[1-40] wild type (from UniProt P12579 1-40) |  |  |  | Kd [3]: < 5 µM; Kd [4]: > 4 µM
RSV phosphoprotein P E7A (full length, plasmid pP) (from UniProt P12579 1-241) |  |  | 50 % reduction | 
RSV phosphoprotein P F4A (full length, plasmid pP) (from UniProt P12579 1-241) |  |  | 50 % reduction | polymerase activity in the HRSV minigenome replication assay [5]: 80 % reduction
RSV phosphoprotein P F8A (full length, plasmid pP) (from UniProt P12579 1-241) |  |  | 50 % reduction | polymerase activity in the HRSV minigenome replication assay [5]: 80 % reduction
RSV phosphoprotein P F20A (full length, plasmid pP) (from UniProt P12579 1-241) |  |  | 50 % reduction | polymerase activity in the HRSV minigenome replication assay [5]: 80 % reduction
RSV phosphoprotein P G10A (full length, plasmid pP) (from UniProt P12579 1-241) |  |  | 50 % reduction | polymerase activity in the HRSV minigenome replication assay [5]: 80 % reduction
RSV phosphoprotein P I24A (full length, plasmid pP) (from UniProt P12579 1-241) |  |  | 50 % reduction | 
RSV phosphoprotein P K25A (full length, plasmid pP) (from UniProt P12579 1-241) |  |  | 50 % reduction | 
RSV phosphoprotein P L21A (full length, plasmid pP) (from UniProt P12579 1-241) |  |  | 50 % reduction | 
Ac-EDANNKAT[R8]FLESIK[S5]KFAS (staple 9-16) [HEVS108] |  |  |  | binding result [6]: no binding

Source: patent US20170152292A1 (FONDATION THE ARK, published 2017)
